Experimental findings from patent US20240390512A1, “METHODS OF TREATING CHEMOTHERAPY-RESISTANT CANCER WITH AN ANTIBODY-DRUG CONJUGATE” (DAIICHI SANKYO COMPANY, LIMITED, priority 2021, published 2024) are described below.

The target in assay [1] is T1, human CDH6 (full-length and EC domain deletion mutants) (Homo sapiens, UniProt P55285, DEL269-383).
T1 construct: each one of the five EC domains could be deleted from full-length human CDH6; 3xFLAG (deletion mutants only, from the vector p3×FLAG-CMV-9); expressed in transfected cells; host or cells: 293α cells
T1 sequence (P55285 with tags, fused parts or gaps DEL269-383): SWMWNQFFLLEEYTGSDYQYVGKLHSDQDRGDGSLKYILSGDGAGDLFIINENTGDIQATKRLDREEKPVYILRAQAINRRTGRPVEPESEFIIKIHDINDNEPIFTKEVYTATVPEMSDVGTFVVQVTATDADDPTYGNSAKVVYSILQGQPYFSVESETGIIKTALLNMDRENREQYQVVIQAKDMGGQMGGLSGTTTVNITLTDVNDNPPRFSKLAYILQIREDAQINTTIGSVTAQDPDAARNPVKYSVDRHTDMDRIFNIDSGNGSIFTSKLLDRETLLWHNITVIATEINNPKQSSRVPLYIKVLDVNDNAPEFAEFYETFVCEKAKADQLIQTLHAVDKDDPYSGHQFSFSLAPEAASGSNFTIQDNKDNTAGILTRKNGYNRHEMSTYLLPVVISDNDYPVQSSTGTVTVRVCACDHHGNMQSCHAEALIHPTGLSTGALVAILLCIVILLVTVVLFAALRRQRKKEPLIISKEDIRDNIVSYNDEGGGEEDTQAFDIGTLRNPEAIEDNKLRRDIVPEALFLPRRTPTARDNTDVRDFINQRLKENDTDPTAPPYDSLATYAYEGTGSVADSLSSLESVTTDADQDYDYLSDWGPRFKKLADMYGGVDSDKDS
The assay can be described thus: Epitope analysis of rat anti-CDH6 antibody by flow cytometry using domain deletion mutants. Format: binding. The following applies: flow cytometry; transfected 293α cells; antibody 20 nM. From the text:
(§1) The full-length extracellular region of human CDH6 has five extracellular domains, EC1 (SEQ ID NO: 2), EC2 (SEQ ID NO: 3), EC3 (SEQ ID NO: 4), EC4 (SEQ ID NO: 5), and EC5 (SEQ ID NO: 6). A gene to be expressed such that each one of the five EC domains could be deleted from full-length human CDH6 was synthesized by GeneArt, and incorporated into p3×FLAG-CMV-9 vectors for mammalian expression (Sigma-Aldrich Co. LLC) according to a method known to a person skilled in the art in order to produce an expression vector for each domain deletion mutant lacking any one of EC1 to EC5.
(§2) The epitopes to which the rat anti-human CDH6 antibodies bound were identified by flow cytometry analysis using a 293α cell line transfected with each EC domain deletion vector. Using Lipofectamine 2000 (Thermo Fisher Scientific Inc.), each domain deletion mutant expression vector produced in Reference Example 2)-2-1, or pcDNA3.1-hCDH6 for the expression of full-length human CDH6 was transiently introduced into a 293α cell line, which was a cell line derived from HEK293 cells by stable transfection with integrin αv and integrin […] expression vectors. The cells were cultured overnight under conditions of 37° C. and 5% CO2, and thereafter, a cell suspension was prepared. The suspension of the transfected 293α cells was centrifuged, and a supernatant was then removed. Thereafter, the cells were suspended by the addition of each of the 4 rat anti-CDH6 monoclonal antibodies (clone Nos: rG019, rG055, rG056 and rG061), which had been prepared in Reference Example 1)-7, or rat IgG control (R&D Systems, Inc.) (final concentration: 20 nM). The cells were left standing at 4° C. for 1 hour. The cells were washed twice with PBS supplemented with 5% FBS, and then suspended by the addition of Anti-Rat IgG (whole molecule)-FITC antibody produced in rabbit (Sigma-Aldrich Co. LLC) that had been 50-fold diluted with PBS supplemented with 5% FBS. The cells were left standing at 4° C. for 1 hour. The cells were washed twice with PBS supplemented with 5% FBS, followed by detection using a flow cytometer (Canto II; BD Biosciences). The data was analyzed using FlowJo (Tree Star, Inc.). In the histograms of FIGS. 2-1 to 2-6, the abscissa depicts FITC fluorescence intensity indicating the amount of the antibody bound, and the ordinate depicts cell count. […] Fluorescence intensity is enhanced when the antibody binds to full-length hCDH6 or each EC domain deletion mutant on the surface of cells. The rat IgG control binds to none of the transfected cells.
For orientation: In flow cytometry, cells or beads pass a laser one at a time.

The target in assay [2] is T2, human CDH6 (full-length and EC domain deletion mutants) (Homo sapiens, UniProt P55285, DEL384-486).
T2 construct: each one of the five EC domains could be deleted from full-length human CDH6; 3xFLAG (deletion mutants only, from the vector p3×FLAG-CMV-9); expressed in transfected cells; host or cells: 293α cells
T2 sequence (P55285 with tags, fused parts or gaps DEL384-486): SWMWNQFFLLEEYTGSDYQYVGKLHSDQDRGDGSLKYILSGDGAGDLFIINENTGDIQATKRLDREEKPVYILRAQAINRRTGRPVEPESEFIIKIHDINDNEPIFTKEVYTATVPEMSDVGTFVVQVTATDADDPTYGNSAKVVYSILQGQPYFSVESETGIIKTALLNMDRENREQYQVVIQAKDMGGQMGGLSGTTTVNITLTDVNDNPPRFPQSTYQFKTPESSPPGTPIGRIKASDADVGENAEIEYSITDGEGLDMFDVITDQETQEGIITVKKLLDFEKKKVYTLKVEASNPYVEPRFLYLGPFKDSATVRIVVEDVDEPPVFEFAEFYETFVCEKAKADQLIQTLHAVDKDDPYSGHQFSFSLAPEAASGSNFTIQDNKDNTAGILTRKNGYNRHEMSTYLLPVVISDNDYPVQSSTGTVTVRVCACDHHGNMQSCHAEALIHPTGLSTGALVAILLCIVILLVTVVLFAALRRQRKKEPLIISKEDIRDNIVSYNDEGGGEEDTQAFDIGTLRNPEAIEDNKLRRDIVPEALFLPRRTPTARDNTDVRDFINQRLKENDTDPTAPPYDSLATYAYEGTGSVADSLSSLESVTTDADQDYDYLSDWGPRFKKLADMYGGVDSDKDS
The assay is described as above. In kind it is binding. Conditions: flow cytometry; transfected 293α cells; antibody 20 nM.
Description: as §1, §2

Positions count from the first letter of the chain named.

B1: rG056: rat anti-human CDH6 monoclonal antibody produced by hybridoma rG056; variable regions SEQ ID NO: 30 and 35 (antibody, listed as Rattus norvegicus, V domains shown)
VL: DVQMTQSPSSLAASPGESVSISCRATKSIGIYLAWYQQKPGKTFKLLIYSGSTLQSGTPSRFSGSGSGTDFTLTIRSLEPEDFGLYFCQQFYENPFTFGSGTKLEIRRA
VH: EVQLQESGPGLVKPSQSLSLTCSVTDYSITTYFWGWIRKFPGNKMEWMGYMSYRGGTSYNPSLKSRISITRDTSKNQFFLQLNSVTTEDTATYYCARCPNYGGHSLVFDYWGQGVMVTVSS
Consider B1, for which the “binding to EC3 deletion mutant” value in assay [1] is given as “do not bind”. Moreover, the “binding to EC4 deletion mutant” value in assay [2] is “bind”.

B2: rG055: rat anti-human CDH6 monoclonal antibody produced by hybridoma rG055; variable regions SEQ ID NO: 20 and 25 (antibody, listed as Rattus norvegicus, V domains shown)
VL: DVQMTHSPSYLAASPGESVSISCKTSKNISNYLVWYQQKPGEAYKLLIYSGSTLQSGTPSRFSGSGSGTDFTLTIRSLEPEDFGLYFCQQYYEKPFTFGSGTKLEIKRA
VH: EVQLQESGPGLVRPSQSLSLSCSVTDYSITSNYWGWIRRFPGNKMEWMGYITYSGYTSYNPSLQSRISITRDTSKNQFFLQLNSVTAEDTATYYCARSINHGGYSYVVDAWGPGASVTVSS
Take B2: in assay [1], the “binding to EC3 deletion mutant” value is “do not bind”. Moreover, the “binding to EC4 deletion mutant” value in assay [2] was “bind”.

B3: rG061: rat anti-human CDH6 monoclonal antibody produced by hybridoma rG061; variable regions SEQ ID NO: 40 and 45 (antibody, listed as Rattus norvegicus, V domains shown)
VL: B2 VL with H6Q, T25A, S26T, N28S, V34A, L46V, F87S, F96L
VH: EVQLQESGPGLVKPSQSLSLTCSVTGYSITTYYWGWIRKFPGNKMEWMGYISYSGRTSYNPSLKSRMSITRDASKNQFFLQLNSVTTDDTATYYCARSPINHGGYWYFDFWGPGTMVTVSS
On to B3, for which, in assay [1], the “binding to EC3 deletion mutant” value is listed as “do not bind”. Besides, the “binding to EC4 deletion mutant” value in assay [2] is listed as “bind”.

B4: rG019: rat anti-human CDH6 monoclonal antibody produced by hybridoma rG019; variable regions SEQ ID NO: 10 and 15 (antibody, listed as Rattus norvegicus, V domains shown)
VL: DIQMTQSPSLLSASVGDRVTLNCKASQNIYKNLAWYQQKLGEGPKLLIYDANTLQTGIPSRFSGSGSGSDFTLTISSLQPEDVATYFCQQYYSGWAFGGVTNLELKRA
VH: QVQLQQSGAELVKPGSSVKISCKASGYTFTRNFMHWIKQQPGNGLEWIGWIYCGDGETEYNQKFNGKATLTADRSSSTAYMELSRLTSEDSAVYFCARGVYGGFAGGYFDFWGQGVMVTVSS
For the molecule B4, the “binding to EC3 deletion mutant” value in assay [1] is given as “do not bind”. Further, in assay [2], the “binding to EC4 deletion mutant” value is reported as “bind”.
